Experimental data taken from patent publication US20050203025A1.

Experiments:
[1] = target: desmocollin (on Fsk-7.1 mouse mammary epithelial cells) (mouse); test: cell-based or functional assay
[2] = target: desmoglein (on Fsk-7.1 mouse mammary epithelial cells) (mouse); test: cell-based or functional assay

B1: H-…-OH (SEQ ID NO: 5284) (peptide)
peptide: H-LTAFATTPDG-OH
% (single cells + clusters <4 cells); alveolar aggregate formation of Fsk-7.1 cells, 24 hr, no desmoglein peptide [1]: 28%
% (single cells + clusters <4 cells); alveolar aggregate formation of Fsk-7.1 cells, 24 hr, together with H-…-OH [1]: 36.5%

B2: H-…-OH (SEQ ID NO: 5283) (peptide)
peptide: H-LTGYALDSRG-OH
% (single cells + clusters <4 cells); alveolar aggregate formation of Fsk-7.1 cells, 24 hr, no desmocollin peptide [2]: 21.7%
% (single cells + clusters <4 cells); alveolar aggregate formation of Fsk-7.1 cells, 24 hr, together with Ac-CFATC-NH2 [2]: 39.5%
% (single cells + clusters <4 cells); alveolar aggregate formation of Fsk-7.1 cells, 24 hr, together with Ac-CYASC-NH2 [2]: 57.2%
% (single cells + clusters <4 cells); alveolar aggregate formation of Fsk-7.1 cells, 24 hr, together with Ac-CYATC-NH2 [2]: 58.6%
% (single cells + clusters <4 cells); alveolar aggregate formation of Fsk-7.1 cells, 24 hr, together with H-…-OH [2]: 36.5%

B3: Ac-CFATC-NH2 (SEQ ID NO: 5009) (peptide)
peptide: Ac-CFATC-NH2
modifications: also: cyclic peptide, bond of cyclisation not given here
% (single cells + clusters <4 cells); alveolar aggregate formation of Fsk-7.1 cells, 24 hr, no desmoglein peptide [1]: 13.1%
% (single cells + clusters <4 cells); alveolar aggregate formation of Fsk-7.1 cells, 24 hr, together with Ac-CRALC-NH2 [1]: 33.6%
% (single cells + clusters <4 cells); alveolar aggregate formation of Fsk-7.1 cells, 24 hr, together with H-…-OH [1]: 39.5%

B4: Ac-CRALC-NH2 (SEQ ID NO: 4236) (peptide)
peptide: Ac-CRALC-NH2
modifications: also: cyclic peptide, bond of cyclisation not given here
% (single cells + clusters <4 cells); alveolar aggregate formation of Fsk-7.1 cells, 24 hr, no desmocollin peptide [2]: 12.9%
% (single cells + clusters <4 cells); alveolar aggregate formation of Fsk-7.1 cells, 24 hr, together with Ac-CFATC-NH2 [2]: 33.6%
% (single cells + clusters <4 cells); alveolar aggregate formation of Fsk-7.1 cells, 24 hr, together with Ac-CYASC-NH2 [2]: 37.2%
% (single cells + clusters <4 cells); alveolar aggregate formation of Fsk-7.1 cells, 24 hr, together with Ac-CYATC-NH2 [2]: 19.6%

B5: Ac-CYATC-NH2 (SEQ ID NO: 4683) (peptide)
peptide: Ac-CYATC-NH2
modifications: also: cyclic peptide, bond of cyclisation not given here
% (single cells + clusters <4 cells); alveolar aggregate formation of Fsk-7.1 cells, 24 hr, no desmoglein peptide [1]: 18.2%
% (single cells + clusters <4 cells); alveolar aggregate formation of Fsk-7.1 cells, 24 hr, together with Ac-CRALC-NH2 [1]: 19.6%
% (single cells + clusters <4 cells); alveolar aggregate formation of Fsk-7.1 cells, 24 hr, together with H-…-OH [1]: 58.6%

B6: Ac-CYASC-NH2 (SEQ ID NO: 5156) (peptide)
peptide: Ac-CYASC-NH2
modifications: also: cyclic peptide, bond of cyclisation not given here
% (single cells + clusters <4 cells); alveolar aggregate formation of Fsk-7.1 cells, 24 hr, no desmoglein peptide [1]: 12.9%
% (single cells + clusters <4 cells); alveolar aggregate formation of Fsk-7.1 cells, 24 hr, together with Ac-CRALC-NH2 [1]: 37.2%
% (single cells + clusters <4 cells); alveolar aggregate formation of Fsk-7.1 cells, 24 hr, together with H-…-OH [1]: 57.2%
